US20150258211

System: GST-GFP fusion protein expressed from pJB-HTS-GFP (GST, hexa-histidine tag, thrombin cleavage site LVPRGS, GFP) [GST: P08515]
Sequence (P08515 whole entry, looked up, the tested form may be a part): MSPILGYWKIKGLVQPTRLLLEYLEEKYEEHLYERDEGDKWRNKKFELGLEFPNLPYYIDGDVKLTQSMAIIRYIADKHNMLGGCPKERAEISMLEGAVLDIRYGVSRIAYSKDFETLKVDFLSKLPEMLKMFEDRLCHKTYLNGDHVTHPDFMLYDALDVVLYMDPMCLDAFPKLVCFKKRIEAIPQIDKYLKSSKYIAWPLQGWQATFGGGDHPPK

thrombin
Michaelis-Menten constant (Km) of thrombin cleavage of GST-GFP associated with PEGDA-GSH microspheres, SDS-PAGE densitometry: significantly increased from approximately 0.18 µM to 0.30 µM | Michaelis-Menten constant (Km) of thrombin cleavage of free GST-GFP, SDS-PAGE densitometry: significantly increased from approximately 0.18 µM to 0.30 µM
